Data on four molecules can be found in patent US20240336900A1, “METHODS AND COMPOSITIONS RELATED TO MODIFIED METHYLTRANSFERASES AND ENGINEERED BIOSENSORS” (BOARD OF REGENTS, THE UNIVERSITY OF TEXAS SYSTEM, priority 2023, published 2024).

Positions count from the first letter of the chain named. Names and notes keep the numbering of the source.

Data set [1] can be described thus: HPLC and LC/MS analysis of in vivo Nb4OMT reaction supernatant. Type of data set: cell-based, Escherichia coli. Particulars: 3-OMe-norbelladine identified as minor component. The method, then:
Assay samples were filtered using a 0.2-um PTFE syringe filter prior to running the HPLC. The measurement of Norbelladine and 4-O'Methyl-norbelladine was performed using a Vanquish HPLC system (Thermo Fisher Scientific) equipped with a BDS Hypersil TM C18 (3.0×150 mm 2, 3 um) (Thermo Fisher Scientific) with detection wavelength 277 nm. The mobile phase consisted of 0.1% formic acid in water or 0.1% formic acid in acetonitrile over the course of 28 minutes under the following conditions: 10% organic (vol/vol) for 2 minutes, 10 to 30% organic (vol/vol) for 13 minutes, 30 to 90% organic (vol/vol) for 0.1 minutes, 90% organic (vol/vol) for 4.9 minutes, 90 to 10% organic (vol/vol) for 1 minute, and 10% organic (vol/vol) for 7 minutes. The flow rate was fixed at 0.8 ml min-1. A standard curve for norbelladine was prepared using synthesized norbelladine (see Chemical synthesis and NMR analysis of norbelladine). A standard curve for 4-O'Methyl-norbelladine was prepared using commercially available 4-O'Methyl-norbelladine.
Cells containing the plasmid expressing each Nb4OMT variant with the P150-RBS (RiboJ) promoter were transformed and plated onto an LB agar plate containing appropriate antibiotics. […]
Samples were analyzed using an Agilent 6530 Q-TOF LC-MS with a dual Agilent Jet Stream electrospray ionization source in positive mode. […]

The nature of data set [2]: Differential scanning fluorimetry. Particulars: for Tm: 5 μM protein, SYPRO Orange. Type of data set: physicochemical. The method, then:
Purified Nb4OMT variants in the concentration of 5 μM were prepared in 96-well low-profile PCR plates (ABgene, Thermo Scientific). 10×SYPRO® Orange (Molecular Probes) was added into each well and mixed prior to measurement in an RT-PCR machine (LightCycler 480, Roche). The protein melting experiments were carried out with a continuous temperature acquisition mode using 10 acquisitions per 1° C. in each cycle from 20° C. to 95° C. The melting curves of the Nb4OMT variants were monophasic and Tm values were derived using Boltzmann equation.

Data set [3] can be described thus: Steady state kinetics of purified Nb4OMT variants. The data set is classed as biochemical. Particulars: for kcat: 3.5 nM enzyme, 500 μM SAM, 37° C., PBS pH 7.5; for Km: calculated by dividing kcat by kcat/Km. The method, then: Reactions for kinetics measurements were performed in triplicate for all enzyme variants. For each variant 1.5 ml reactions containing 3.5 nM of enzyme, 500 μM SAM, 2 mM CaCl2), and 15.625, 31.25, 62.5, 125, 250, or 500 μM norbelladine in PBS pH 7.5 were incubated at 37° C. for 4 hours. Every hour a 200 μl aliquot of each reaction was quenched by pipetting it into a 1.5 ml microcentrifuge tube with 20 μl of 2M HCl. The concentration of 4′-O-Methylnorbelladine was then determined using HPLC as described.
Kinetic data were fit in KinTek Explorer simulation and data fitting software v11 (Roy, 2018). The following minimal model was used as an input. Each line represents a step in the model and the forward reaction goes from left to right while the reverse reaction goes from right to left as written. • (1) E+S=ES • (2) ES=EP • (3) EP=E+P • (4) S=P2
3.5 nM enzyme and 15.625, 31.25, 62.5, 125, 250, and 500 M substrate. The output observable was defined as EP+P. Substrate oxidation was modeled in step (4) as irreversible with a best fit value from globally fitting data from all variants to derive k4=0.00547 min^−1.To get kout/Km and kcat: k−1, k−2, and k−3 were locked at 0 min-1 (irreversible reactions). k+3 was locked at 10,000 min-1 as to not limit the rate of turnover. k+1 and k+2 were used as variable parameters in the fitting. Under these conditions, k+2=kcat and k+1=kcat/Km. For estimates of 95% confidence intervals on kinetic parameters, confidence contour analysis was used with the FitSpace function in KinTek Explorer (Bhattacharya, 2015). Confidence contour plots are calculated by systematically varying a single rate constant and holding it fixed at a particular value while refitting the data, allowing other rate constants to float. The goodness of fit was scored by the resulting χ^2 value. The confidence interval is defined based on a threshold in χ^2 calculated from the F-distribution based on the number of data points and number of variable parameters to give the 95% confidence limits. For the data given in FIGS. 20A-20C, this threshold was 0.85 to estimate the upper and lower limits for each parameter. […] We then fit the data for these two variants to the model shown below, accounting for substrate inhibition.
As before, k+1 was allowed to float in the fitting to give kcat/Km, and k−1 was locked at 0 min^−1, k+2 was allowed to float in the fitting to give kcat, and k−2 was locked at 0 min^−1. k+3 was locked at 10,000 min^−1, and k−3 was locked at 0 min^−1. k+4 and k+6 were locked at 100 μM^−1 min^−1, and k−4 and k−6 were allowed to float in the fitting as linked parameters. k+5 was linked to k+1 and k−5 was locked at 0 min^−1. k−7 was locked at 0 min^−1, and k+7 was locked at 0.00547 min^−1.

Data set [4] is described as follows: Sensitivity and selectivity of evolved RamR sensor variants. The data set is classed as cell-based, Escherichia coli. The method, then:
Cell culture (20 μl) bearing the sensor library was seeded into 5 ml fresh LB containing appropriate antibiotics, 100 μg ml-1 zeocin (Thermo Fisher, R25001) and 100 uM of norbelladine (for round two) and grown at 37° C. for 7 h. Following incubation, 0.5 μl of culture was diluted into 1 ml LB medium, from which 100 μl was further diluted into 900 μl LB medium. Three hundred microliters of this mixture was then plated across three LB agar plates (100 μL per plate) containing carbenicillin, chloramphenicol and 4NB dissolved in DMSO. Plates were incubated overnight at 37° C. The following day, the brightest colonies were picked and grown overnight in 1 ml LB medium containing appropriate antibiotics in a 96-deep-well plate sealed with an AeraSeal film at 37° C. A glycerol stock of cells containing pSELIS-RamR and pReg-RamR encoding the template RamR variant was also inoculated into 5 ml LB for overnight growth.
The following day, 20 μl of each culture was used to inoculate two separate wells in a new 96-deep-well plate containing 900 μl LB medium. Additionally, eight separate wells containing 1 ml LB medium were inoculated with 20 μl of the overnight culture expressing the parental RamR variant. After 2 h of growth at 37° C., the top half of the 96-well plate was induced with 100 μl LB medium containing 10 μl DMSO, whereas the bottom half of the plate was induced with 100 μl LB medium containing 4NB dissolved in 10 μl DMSO. The concentration of 4NB used for induction is typically the same concentration used in the LB agar plate for screening during that particular round of evolution. Cultures were grown for an additional 4 h at 37° C. and 250 r.p.m. and subsequently centrifuged (3,500 g, 4° C., 10 min). Supernatant was removed, and cell pellets were resuspended in 1 ml PBS. One hundred microliters of the cell resuspension for each condition was transferred to a 96-well microtiter plate, from which the fluorescence (excitation, 485 nm; emission, 509 nm) and absorbance (600 nm) were measured using the Tecan Infinite M1000 plate reader. Clones with the highest signal-to-noise ratio (generally the top 5-10% of the screened clones) were then sequenced and subcloned into a fresh pReg-RamR vector.
For sensor variant validation, the subcloned pReg-RamR vectors expressing the sensor variants were transformed into DH10B cells expressing Pramr-GFP. […]
Glycerol stocks (20% glycerol) of strains containing the plasmids of interest were inoculated into 1 ml LB medium and grown overnight at 37° C. […] The cell resuspension (100 μl) for each condition was transferred to a 96-well microtiter plate, from which the fluorescence (excitation, 485 nm; emission, 509 nm) and absorbance (600 nm) were measured using the Tecan Infinite M1000 plate reader.

B1: Wild-type Nb4OMT: natural norbelladine 4′-O-Methyltransferase from Narcissus pseudonarcissus (protein)
chain: MGASIDDYSLVHKNILHSEDLLKYILETSAYPREHEQLKGLREVTEKHEWSSALVPADEGLFLSMLLKLMNAKRTIEIGVYTGYSLLTTALALPEDGKITAIDVNKSYYEIGLPFIQKAGVEHKINFIESEALPVLDQMLEEMKEEDLYDYAFVDADKSNYANYHERLVKLVRIGGAILYDNTLWYGSVAYPEYPGLHPEEEVARLSFRNLNTFLAADPRVEISQVSIGDGVTICRRLY
modifications: Description of sequence: Natural enzyme, norbelladine 4'-O-Methyltransferase
notes: natural norbelladine 4′-O-Methyltransferase from Narcissus pseudonarcissus
On to B1, for which, in data set [1], the regiospecificity result was “not highly regiospecific”. Also, the Tm in data set [2] was 52.8 °C. Moreover, in data set [3], the kcat amounted to 1.22 s⁻¹ and the Km was 62 µM.

B2: E36P/G40E/A53M mutant: Nb4OMT variant with mutations E36P, G40E and A53M (protein)
chain: B1 chain with E36P, G40E, A53M
Consider B2, for which, in data set [2], the “increase in Tm relative to the wild-type enzyme” value was 5.6 °C and the Tm amounted to 58.4 °C. Also, in data set [3], the catalytic constant (kcat) was more than 2 s⁻¹ and the Km is less than 83 µM. Also, the substrate inhibition entry in data set [3] (steady state kinetic data, highest norbelladine concentration) is reported as “affected by substrate inhibition”.

B3: 4NB1.2: RamR variant bearing two amino acid substitutions, K63T and L66M (protein)
chain: MVARPKSEDKKQALLEAATQAIAQSGIAASTAVIARNAGVAEGTLFRYFATKDELINTLYLHLTQDMCQSMIMELDRSITDAKMMTRFIWNSYISWGLNHPARHRAIRQLAVSEKLTKETEQRADDMFPELRDLCHRSVLMVFMSDEYRAFGDGLFLALAETTMDFAARDPARAGEYIALGFEAMWRALTREEQ
modifications: Description of sequence: Improved biosensor variant K63T, L66M
Turning to B3, the “selectivity for 4NB over norbelladine” value in data set [4] is listed as 20 fold.

B4: 4NB2.1: evolved RamR biosensor variant, K63T, L66M, C134D and S137G (protein)
chain: B3 chain with C135D, S138G
modifications: Description of sequence: Improved biosensor variant K63T, L66M, C134D, S137G
As for B4, in data set [4], the “selectivity for 4NB over norbelladine” value was “over 80 fold” and the “sensitivity relative to the HPLC method” value is “approximately 10 fold”. The limit of detection result in data set [4] (4NB) is listed as “approximately 2.5 uM”.
